The text below walks through data of article PMC6872814, “Functional interactions between nitrite reductase and nitric oxide reductase from Paracoccus denitrificans” (Scientific Reports, 2019).

Series [1] deals with the molecule itself. Kind of series: fluorescence correlation spectroscopy (photon count-rate per molecule, CPM); increasing concentrations of cd1NiR-STAR 635 alone; CPM fitted with the ligand-binding model (Eq. 2); apparent; monomer to dimer; points above 15 nM not in the fit.
Series [2] concerns the molecule itself. The series can be described thus: fluorescence correlation spectroscopy (photon count-rate per molecule, CPM); increasing concentrations of cd1NiR-STAR 635 with 40 nM unlabelled cNOR in the solution; CPM fitted with the ligand-binding model (Eq. 2); apparent; monomer to dimer.

B1: cytochrome cd1 nitrite reductase (cd1NiR) from Paracoccus pantotrophus, labelled with Abberior STAR 635 (enzyme, UniProt P72181 30-596, looked up)
chain: QEQVAPPKDPAAALEDHKTRTDNRYEPSLDNLAQQDVAAPGAPEGVSALSDAQYNEANKIYFERCAGCHGVLRKGATGKALTPDLTRDLGFDYLQSFITYGSPAGMPNWGTSGELSAEQVDLMANYLLLDPAAPPEFGMKEMRESWKVHVAPEDRPTQQENDWDLENLFSVTLRDAGQIALIDGATYEIKSVLDTGYAVHISRLSASGRYLFVIGRDGKVNMIDLWMKEPTTVAEIKIGSEARSIETSKMEGWEDKYAIAGAYWPPQYVIMDGETLEPKKIQSTRGMTYDEQEYHPEPRVAAILASHYRPEFIVNVKETGKILLVDYTDLDNLKTTEISAERFLHDGGLDGSHRYFITAANARNKLVVIDTKEGKLVAIEDTGGQTPHPGRGANFVHPTFGPVWATSHMGDDSVALIGTDPEGHPDNAWKILDSFPALGGGSLFIKTHPNSQYLYVDATLNPEAEISGSVAVFDIKAMTGDGSDPEFKTLPIAEWAGITEGQPRVVQGEFNKDGTEVWFSVWNGKDQESALVVVDDKTLELKHVIKDERLVTPTGKFNVYNTMTDTY
modifications: Abberior STAR 635 (amino-reactive dye, 5-fold molar excess; sites not stated); heme c and heme d1
notes: cytochrome cd1 nitrite reductase (cd1NiR), Paracoccus pantotrophus (G6), soluble periplasmic protein; 97% identical to the P. denitrificans enzyme; STAR 635-labelled in the fluorescence experiments; the activity assays (functional rows) used the same protein unlabelled; Written as the monomer chain; also called cd1NiR-STAR 635; cd1NIR-STAR 635
As to B1, the Kd in series [1] came out at 3.5 ± 0.1 nM; in series [2], 5.3 ± 0.2 nM.
